Source: publication PMC4764128

Target: Dup A502,Y503 KIT D4D5 fragment (human) (UniProt P10721)
Experiment: SEC-MALS

Kd: 730 µM
Substance: Dup A502,Y503 KIT D4D5 fragment (from UniProt P10721 308-514) (domain or fragment)
